Patent US20090233319

Target: T1, recombinant ICAD protein, O00273
T1 chain: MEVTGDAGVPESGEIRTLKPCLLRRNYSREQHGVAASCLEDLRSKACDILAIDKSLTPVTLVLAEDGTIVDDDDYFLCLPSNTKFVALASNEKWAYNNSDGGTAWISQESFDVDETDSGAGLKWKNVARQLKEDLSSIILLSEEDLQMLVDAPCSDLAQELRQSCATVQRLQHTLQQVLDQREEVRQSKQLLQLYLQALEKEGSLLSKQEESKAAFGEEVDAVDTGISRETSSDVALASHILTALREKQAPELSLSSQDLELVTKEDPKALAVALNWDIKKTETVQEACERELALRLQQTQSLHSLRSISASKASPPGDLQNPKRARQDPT

B1: purified caspase-14 from human cornified cells (heterodimer of large subunit 17 KDa and small subunit 11 KDa) (protein)
chain 1: SLEEEKYDMSGARLALILCVTKAREGSEEDLDALEHMFRQLRFESTMKRDPTAEQFQEELEKFQQAIDSREDPVSCAFVVLMAHGREGFLKGEDGEMVKLENLFEALNNKNCQALRAKPKVYIIQACRGEQRDPGETVGGD
chain 2: KDSPQTIPTYTDALHVYSTVEGYIAYRHDQKGSCFIQTLVDVFTKRKGHILELLTEVTRRMAEAELVQEGKARKTNPEIQSTLRKRLYLQ
ICAD decomposition by caspase-14 in the presence of a kosmotropic salt (Western blot with anti-ICAD IgG): intact ICAD protein was reduced and the two major decomposition products were increased, thus indicating that purified caspase-14 has a limited decomposing effect on ICAD
ICAD hydrolysis by caspase-14 in ordinary caspase assay buffer (Western blot with anti-ICAD IgG): showed absolutely no hydrolytic activity of the purified caspase-14 for ICAD
